Here are results for one protein from paper PMC3099546.

Substrate in this data set: CCCCC/C=C\C\C=C/C=C/C=C/[C@@H](SC[C@H](NC(=O)CC[C@H](N)C(=O)O)C(=O)NCC(=O)O)[C@@H](O)CCCC(=O)O
As to the kind of experiment: purified protein.

A word on the Km: it is the concentration of substrate that gives half-maximal velocity. Broadly, the kcat is the number of substrate molecules converted per active site and unit of time at saturation. For orientation: kcat/Km means the second-order rate constant that governs catalysis at low substrate concentration.

B1: gamma-glutamyl leukotrienase (GGT5) (Homo sapiens) (protein)
chain 1: SRHQAPCGPQAFAHAAVAADSKVCSDIGRAILQQQGSPVDATIAALVCTSVVNPQSMGLGGGVIFTIYNVTTGKVEVINARETVPASHAPSLLDQCAQALPLGTGAQWIGVPGELRGYAEAHRRHGRLPWAQLFQPTIALLRGGHVVAPVLSRFLHNSILRPSLQASTLRQLFFNGTEPLRPQDPLPWPALATTLETVATEGVEVFYTGRLGQMLVEDIAKEGSQLTLQDLAKFQPEVVDALEVPLGDYTLYSPPPPAGGAILSFILNVLRGFNFSTESMARPEGRVNVYHHLVETLKFAKGQRWRLGDPRSHPKLQNASRDLLGETLAQLIRQQIDGRGDHQLSHYSLAEAWGHGTG
chain 2: TSHVSVLGEDGSAVAATSTINTPFGAMVYSPRTGIILNNELLDLCERCPRGSGTTPSPVSGDRVGGAPGRCWPPVPGERSPSSMVPSILINKAQGSKLVIGGAGGELIISAVAQAIMSKLWLGFDLRAAIAAPILHVNSKGCVEYEPNFSQEVQRGLQDRGQNQTQRPFFLNVVQAVSQEGACVYAVSDLRKSGEAAGY
Take B1: the Michaelis-Menten constant (Km) stood at 10.2 ± 0.1 µM, the kcat was 3.33 s⁻¹ and the kcat/Km came to 317000 M⁻¹ s⁻¹.
